# Source: patent US20040054131A1 (CHIRON, published 2004)
# Bridges are numbered along the chain shown (N, C = ends). Where no end group is shown, it is not given here.
# B1: FGFR1c extracellular domain-IgG fusion protein (Fc fusion, human, UniProt P11362 22-377, looked up)
# chain: RPSPTLPEQAQPWGAPVEVESFLVHPGDLLQLRCRLRDDVQSINWLRDGVQLAESNRTRITGEEVEVQDSVPADSGLYACVTSSPSGSDTTYFSVNVSDALPSSEDDDDDDDSSSEEKETDNTKPNRMPVAPYWTSPEKMEKKLHAVPAAKTVKFKCPSSGTPNPTLRWLKNGKEFKPDHRIGGYKVRYATWSIIMDSVVPSDKGNYTCIVENEYGSINHTYQLDVVERSPHRPILQAGLPANKTVALGSNVEFMCKVYSDPQPHIQWLKHIEVNGSKIGPDNLPYVQILKTAGVNTTDKEMEVLHLRNVSFEDAGEYTCLAGNSIGLSHHSAWLTVLEALEERPAVMTSPLYLEI
# notes: range 1-377; also called FGFR-IgG; FGFR ECD; not shown: Fc region of human IgG1
# Columns and labels:
# [1] = biological target: B1; assay: BIAcore real-time kinetic analysis, immobilized FGFR1c ECD, no heparin; approximate apparent affinity
# Procedure: C19 peptide with an intrapeptide disulfide bond was synthesized, purified by HPLC, and characterized by mass spectroscopy. C19junΔhep protein was prepared by changing human c-jun residues Arg276, Arg279, Lys285, and Lys288 in the leucine zipper domain to glutamines. […] The extracellular ligand-binding domain of human FGFR Ic (residues 1-377) and human erythropoietin receptor (residues 1-250) were fused to the Fe region of human IgGI, expressed in baculovirus and purified by protein A affinity chromatography. […] PDGF receptor Fc fusion protein was from R&D Systems.
# [2] = biological target: FGF receptor (FGFR) on Swiss 3T3 cells; assay: cell-based or functional assay
# [3] = biological target: B1; assay: deletion mutant analysis; method not stated
# [4] = biological target: T1, F12 phagemid (F12 clone peptide displayed on M13 p8) (bacteriophage M13); assay: displacement of Europium-labeled FGFR-IgG by unlabeled FGFR-IgG from F12 phagemid captured on anti-M13 antibody (time-resolved fluorescence)
# T1 construct: Assayed as whole phagemid particles captured by anti-M13 antibody; The frame A-X3-C-X10-C-X3-(GGS)2GG-p8 is inferred from the 18mer two-cysteine pattern of F12; not shown: M13 p8 coat protein, peptide fused to its N-terminus
# Procedure: Nunc Maxisorp 96-well plates were coated with […] anti-M13 antibody in […] 50 mM Na₂CO₃ pH 9.6 and blocked using the conditions described in Example 2. Phagemid (˜10¹¹ cfu) were applied to wells in binding buffer for 1h and washed 6 times with PBS, 0.05% Tween 20, and 2 times with Delphia Wash Buffer (E&G Wallac). […] Wells were washed 8× in Delphia Wash Buffer, treated with 100 μL of Delphia Enhancer Solution and fluorescence measured. IC₅₀ values were determined from four-parameter fits to displacement plots.
Binder,Kd [1] [µM],also measured
"C19-jun fusion protein (designed binder, also called Clone 19-jun protein) MAESGDDYCVLVFTDSAWTKICDWSHFRNGPGGGSGGGSGGGSGGGSGGGSRCGGRIARLEEKVKTLKAQNSELASTANMLREQVAQLKQKVMNHGGCGGSGGHHHHHH",0.01,EC50 of mitogenesis (BrdU incorporation) in Swiss 3T3 cells with 15 U/ml heparin [2]: 0.00024 µM
"C19junΔhep (designed binder, also called C19jun?hep; C19junahep) MAESGDDYCVLVFTDSAWTKICDWSHFRNGPGGGSGGGSGGGSGGGSGGGSRCGGQIAQLEEKVQTLQAQNSELASTANMLREQVAQLKQKVMNHGGCGGSGGHHHHHH",0.01,–
AESGDDYCVLVFTDSAWTKIC [C19 with truncation of the C-terminal 7 amino acids],–,fold loss of affinity against untruncated C19 [3]: ~15 fold
"AESGDDYCVLVFTDSAWTKICDWSHFRN (disulfide 8-21 (inferred), also called C19 peptide; C19 clone) [C19 synthetic peptide]",0.4,–
B1,–,IC50 [4]: ~0.012 µM
